In assay [1] the target is T1, GST-EphA2 (UniProt P29317 24-976).
T1 construct: EphA2; The methods name both pGEX6p-1-GST/His and pET28a as the vector; also called glutathione S-transferase (GST)-EphA2
Kind of assay: ELISA; as the ELISA on GST-EphA2-coated plates, gH/gL or gB incubated in the presence of IFITM1 (concentration of IFITM1 not stated). Conditions: both partners purified. (In general: In an ELISA, binding on a coated surface is turned into a signal by an enzyme label.)

Assay [2] concerns the target T1, GST-EphA2. Kind of assay: ELISA; 200 ng GST-EphA2 coated on 96-well plates overnight at 4 °C, blocked with 5% BSA in PBS; gradient concentrations of 6×His proteins, 2 h at room temperature; anti-His or anti-GST antibody, HRP secondary, absorbance at 450 nm. Conditions: both partners purified.

Values joined by “and” are separate entries in the source; they are usually repeats but may differ in a detail not shown here. Identical values can stand only once.

In general, EC50 refers to the concentration needed to bring the measured effect to its halfway point. High values mean a less potent agent, low ones a more potent agent.

B1: 6×His-gB (natural protein)
chain: AQTPEQPAPPATTVQPTATRQQTSFPFRVCELSSHGDLFRFSSDIQCPSFGTRENHTEGLLMVFKDNIIPYSFKVRSYTKIVTNILIYNGWYADSVTNRHEEKFSVDSYETDQMDTIYQCYNAVKMTKDGLTRVYVDRDGVNITVNLKPTGGLANGVRRYASQTELYDAPGWLIWTYRTRTTVNCLITDMMAKSNSPFDFFVTTTGQTVEMSPFYDGKNKETFHERADSFHVRTNYKIVDYDNRGTNPQGERRAFLDKGTYTLSWKLENRTAYCPLQHWQTFDSTIATETGKSIHFVTDEGTSSFVTNTTVGIELPDAFKCIEEQVNKTMHEKYEAVQDRYTKGQEAITYFITSGGLLLAWLPLTPRSLATVKNLTELTTPTSSPPSSPSPPAPSAARGSTPAAVLRRRRRDAGNATTPVPPTAPGKSLGTLNNPATVQIQFAYDSLRRQINRMLGDLARAWCLEQKRQNMVLRELTKINPTTVMSSIYGKAVAAKRLGDVISVSQCVPVNQATVTLRKSMRVPGSETMCYSRPLVSFSFINDTKTYEGQLGTDNEIFLTKKMTEVCQATSQYYFQSGNEIHVYNDYHHFKTIELDGIATLQTFISLNTSLIENIDFASLELYSRDEQRASNVFDLEGIFREYNFQAQNIAGLRKDLDNAVSNGRNQFVDGLGELMDSLGSVGQSITNLVSTVGGLFSSLVSGFISFFKNPFGGMLILVLVAGVVILVISLTRRTRQMSQQPVQMLYPGIDELAQQHASGEGPGINPISKTELQAIMLALHEQNQEQKRAAQRAAGPSVASRALQAARDRFPGLRRRRYHDPETAAALLGEAETEF
B1: the “EC50 with IFITM1” value with GST-EphA2 [1] was determined as 84.3 nM. Also, the EC50 in the assay with GST-EphA2 [2] was 41.7 nM and 39.6 nM.

For the origin of these results see paper PMC11087256, “Interferon-induced transmembrane protein-1 competitively blocks Ephrin receptor A2-mediated Epstein–Barr virus entry into epithelial cells” (Nature Microbiology, 2024).
